# Measured values from US7588931B2, “High arachidonic acid producing strains of Yarrowia lipolytica” (E. I. du Pont de Nemours and Company, priority 2004, dated 2009).
# B1: D8S-3: synthetic Δ8 desaturase gene in pDMW261, SEQ ID NO:255 (protein)
# chain: MKSKRQALSPLQLMEQTYDVSAWVNFHPGGAEIIENYQGRDATDAFMVMHFQEAFDKLKRMPKINPSFELPPQAAVNEAQEDFRKLREELIATGMFDASPLWYSYKISTTLGLGVLGYFLMVQYQMYFIGAVLLGMHYQQMGWLSHDICHHQTFKNRNWNNLVGLVFGNGLQGFSVTCWKDRHNAHHSATNVQGHDPDIDNLPPLAWSEDDVTRASPISRKLIQFQQYYFLVICILLRFIWCFQCVLTVRSLKDRDNQFYRSQYKKEAIGLALHWTLKALFHLFFMPSILTSLLVFFVSELVGGFGIAIVVFMNHYPLEKIGDPVWDGHGFSVGQIHETMNIRRGIITDWFFGGLNYQIEHHLWPTLPRHNLTAVSYQVEQLCQKHNLPYRNPLPHEGLVILLRYLAVFARMAEKQPAGKAL
# modifications: D8S-3: synthetic delta 8-desaturase gene codon-optimized for Yarrowia lipolytica in pDMW261
# Tested on: Yarrowia lipolytica strain ATCC #76982(Leu-)
# Experiment: EDA substrate feeding of Y. lipolytica expressing codon-optimized Δ8 desaturase genes
# Type: cell-based
# Conditions: MM containing 10 μg of EDA substrate, about 24 hr at 30° C.
# Procedure: Yarrowia lipolytica strain ATCC #76982(Leu-) was transformed with pDMW240 (FIG. 8D) and pDMW255, respectively, as described in the General Methods. Yeast containing the recombinant constructs were grown in MM supplemented with EDA [20:2(11,14)]. Specifically, single colonies of transformant Y. lipolytica containing either pDMW240 (containing D8S-1) or pDMW255 (containing D8S-2) were grown in 3 mL MM at 30° C. to an OD600˜1.0. For substrate feeding, 100 μl of cells were then subcultured in 3 mL MM containing 10 μg of EDA substrate for about 24 hr at 30° C. The cells were collected by centrifugation, lipids were extracted, and fatty acid methyl esters were prepared by trans-esterification, and subsequently analyzed with a Hewlett-Packard 6890 GC.
# A three amino acid difference between the protein sequence of the Δ8 desaturase deposited in GenBank (Accession No. AAD45877 [SEQ ID NO:43]) and in WO 00/34439 or Wallis et al. (Archives of Biochem. Biophys, 365:307-316 (1999)) (SEQ ID NO:252 herein) was found. Specifically, three amino acids appeared to be missing in GenBank Accession No. […]. […]
molecule,measurement,value
B1,desaturation of EDA to DGLA,No desaturation of EDA to DGLA was observed
